Source: patent publication US20200255516A1

Biological target: Full-length human TIGIT on CHO cells overexpressing TIGIT (human) (UniProt Q495A1)
Test: FACS blocking assay on TIGIT-CHO cells; competitor CF633-labeled CD155-Fc at 2 ug/ml

Chain of Full-length human TIGIT on CHO cells overexpressing TIGIT (human) (Q495A1 22-244 limits assumed): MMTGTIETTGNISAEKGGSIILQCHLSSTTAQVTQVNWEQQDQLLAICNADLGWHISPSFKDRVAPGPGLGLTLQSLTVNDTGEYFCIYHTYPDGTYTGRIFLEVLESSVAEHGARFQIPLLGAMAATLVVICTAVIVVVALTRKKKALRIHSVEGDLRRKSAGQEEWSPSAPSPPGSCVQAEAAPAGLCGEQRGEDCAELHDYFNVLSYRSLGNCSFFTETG

IC50: > 10 µM
Substance: human IgG4 antibody (hIgG4)
